Assay [1] has as its target T1, Human Serum Albumin (human, UniProt P02768 25-609).
T1 construct: also called HSA; HAS
The assay is described as follows: kinetics table, analyte HSA, single concentration 50nM; HEK293 material; method not named in Example 4.

Assay [2] addresses T1, Human Serum Albumin. The assay can be described thus: kinetics table, analyte HSA, titration 50nM, 25nM, 12.5nM, 6.25nM; HEK293 material; method not named in Example 4.
For the next assay, the target named is T2, Cynomolgus Serum Albumin (cynomolgus, UniProt A2V9Z4 25-608).
T2 construct: also called CSA
The assay can be described thus: SPR BIAcore T200; Fab-Fv captured by anti-human F(ab')2, albumin as analyte; average of 3. The protocol: (§1) BIA (Biamolecular Interaction Analysis) was performed using a BIAcore T200 (GE Healthcare). Affinipure F(ab′)₂ Fragment goat anti-human IgG, F(ab′)₂ fragment specific (Jackson ImmunoResearch) was immobilised on a CM5 Sensor Chip via amine coupling chemistry to a capture level of ≈5000 response units (RUs). HBS-EP buffer (10 mM HEPES pH 7.4, 0.15 M NaCl, 3 mM EDTA, 0.05% Surfactant P20, GE Healthcare) was used as the running buffer with a flow rate of 10 μl/min. A 10 μL injection of Fab-Fv at 0.75 μg/mL was used for capture by the immobilised anti-human IgG-F(ab′)₂. Human Serum Albumin (HSA), Mouse Serum albumin (MSA) and Cynomolgus Serum Albumin (CSA) was titrated over the captured Fab-Fv at various concentrations (50 nM to 6.25 nM) at a flow rate of 30 μL/min. The surface was regenerated by 2×10 μL injection of 50 mM HCl, followed by a 5 μL injection of 5 mM NaOH at a flowrate of 10 μL/min. Background subtraction binding curves were analysed using the T200evaluation software (version 1.0) following standard procedures. Kinetic parameters were determined from the fitting algorithm.
A general note: In SPR one partner is held on a chip, and binding of the other changes the refractive index at the surface.

The target in assay [3] is T1, Human Serum Albumin. Described as above. The method, then: as §1
Another assay concerns the target T3, Mouse Serum albumin (mouse, UniProt P07724 25-608).
T3 construct: also called MSA
The assay is described as above. The protocol:
as §1

A word on the Kd: it is the constant that tells how readily two partners part at equilibrium. A higher Kd goes with lower affinity. The term koff denotes the first-order rate constant of dissociation. Low readings indicate slow dissociation, high ones fast dissociation. In general, kon refers to a measure of how fast the partners come together.

B1: FabA-dsscFv (CL-dsscFv) (bispecific antibody)
chain 1: DIQMTQSPSSLSASVGDRVTITCRATQSIYNALAWYQQKPGKAPKLLIYNANTLHTGVPSRFSASGSGTDSTLTISSLQPEDFATYYCQQYYDYPLTFGGGTKVEIKRTVAAPSVFIFPPSDEQLKSGTASVVCLLNNFYPREAKVQWKVDNALQSGNSQESVTEQDSKDSTYSLSSTLTLSKADYEKHKVYACEVTHQGLSSPVTKSFNRGECSGGGGSGGGGSGGGGSEVQLLESGGGLVQPGGSLRLSCAVSGIDLSNYAINWVRQAPGKCLEWIGIIWASGTTFYATWAKGRFTISRDNSKNTVYLQMNSLRAEDTAVYYCARTVPGYSTAPYFDLWGQGTLVTVSSGGGGSGGGGSGGGGSGGGGSDIQMTQSPSSVSASVGDRVTITCQSSPSVWSNFLSWYQQKPGKAPKLLIYEASKLTSGVPSRFSGSGSGTDFTLTISSLQPEDFATYYCGGGYSSISDTTFGCGTKVEIKRT
chain 2: EVQLVESGGGLVQPGGSLRLSCAASGFTFTNYGIHWIRQAPGKGLEWVASISPSGGLTYYRDSVKGRFTISRDDAKNSPYLQMNSLRAEDTAVYYCATGGEGIFDYWGQGTLVTVSSASTKGPSVFPLAPSSKSTSGGTAALGCLVKDYFPEPVTVSWNSGALTSGVHTFPAVLQSSGLYSLSSVVTVPSSSLGTQTYICNVNHKPSNTKVDKKVEPKSC
In the assay with Human Serum Albumin [1], B1 displayed a Kd of 1.28 nM, a koff of 0.000211 s⁻¹ and a kon of 165000 M⁻¹ s⁻¹. In addition, in the assay with Human Serum Albumin [2], the Kd turned out to be 1.31 nM, the koff is 0.00024 s⁻¹ and the kon turned out to be 183000 M⁻¹ s⁻¹.

B2: FabA-dsscFv (CH1-dsscFv) (bispecific antibody)
chain 1: EVQLVESGGGLVQPGGSLRLSCAASGFTFTNYGIHWIRQAPGKGLEWVASISPSGGLTYYRDSVKGRFTISRDDAKNSPYLQMNSLRAEDTAVYYCATGGEGIFDYWGQGTLVTVSSASTKGPSVFPLAPSSKSTSGGTAALGCLVKDYFPEPVTVSWNSGALTSGVHTFPAVLQSSGLYSLSSVVTVPSSSLGTQTYICNVNHKPSNTKVDKKVEPKSCSGGGGSGGGGTGGGGSEVQLLESGGGLVQPGGSLRLSCAVSGIDLSNYAINWVRQAPGKCLEWIGIIWASGTTFYATWAKGRFTISRDNSKNTVYLQMNSLRAEDTAVYYCARTVPGYSTAPYFDLWGQGTLVTVSSGGGGSGGGGSGGGGSGGGGSDIQMTQSPSSVSASVGDRVTITCQSSPSVWSNFLSWYQQKPGKAPKLLIYEASKLTSGVPSRFSGSGSGTDFTLTISSLQPEDFATYYCGGGYSSISDTTFGCGTKVEIKRT
chain 2: DIQMTQSPSSLSASVGDRVTITCRATQSIYNALAWYQQKPGKAPKLLIYNANTLHTGVPSRFSASGSGTDSTLTISSLQPEDFATYYCQQYYDYPLTFGGGTKVEIKRTVAAPSVFIFPPSDEQLKSGTASVVCLLNNFYPREAKVQWKVDNALQSGNSQESVTEQDSKDSTYSLSSTLTLSKADYEKHKVYACEVTHQGLSSPVTKSFNRGEC
In the assay with Human Serum Albumin [1], B2 registered a Kd of 1.25 nM, a koff of 0.000199 s⁻¹ and a kon of 160000 M⁻¹ s⁻¹. In the assay with Human Serum Albumin [2], this molecule returned a Kd of 1.29 nM, a koff of 0.000222 s⁻¹ and a kon of 172000 M⁻¹ s⁻¹.

B3: A26 Fab-dsFv (645gH5gL4) (bispecific antibody)
heavy: EVQLVESGGGLVQPGGSLRLSCAASGFTFTNYGIHWIRQAPGKGLEWVASISPSGGLTYYRDSVKGRFTISRDDAKNSPYLQMNSLRAEDTAVYYCATGGEGIFDYWGQGTLVTVSSASTKGPSVFPLAPSSKSTSGGTAALGCLVKDYFPEPVTVSWNSGALTSGVHTFPAVLQSSGLYSLSSVVTVPSSSLGTQTYICNVNHKPSNTKVDKKVEPKSCSGGGGSGGGGTGGGGSEVQLLESGGGLVQPGGSLRLSCAVSGIDLSNYAINWVRQAPGKCLEWIGIIWASGTTFYATWAKGRFTISRDNSKNTVYLQMNSLRAEDTAVYYCARTVPGYSTAPYFDLWGQGTLVTVSS
light: DIQMTQSPSSLSASVGDRVTITCRATQSIYNALAWYQQKPGKAPKLLIYNANTLHTGVPSRFSASGSGTDSTLTISSLQPEDFATYYCQQYYDYPLTFGGGTKVEIKRTVAAPSVFIFPPSDEQLKSGTASVVCLLNNFYPREAKVQWKVDNALQSGNSQESVTEQDSKDSTYSLSSTLTLSKADYEKHKVYACEVTHQGLSSPVTKSFNRGECGGGGSGGGGSGGGGSDIQMTQSPSSVSASVGDRVTITCQSSPSVWSNFLSWYQQKPGKAPKLLIYEASKLTSGVPSRFSGSGSGTDFTLTISSLQPEDFATYYCGGGYSSISDTTFGCGTKVEIKRT
notes: Anti-OX40 A26 Fab fused to the disulphide-stabilised anti-albumin Fv 645gH5gL4; In the cell assay (2.4) it was labelled with Alexa Fluor 488; also called A26 Fab-Fv; Fab-Fv
In the assay with Cynomolgus Serum Albumin, B3 had a Kd of 2.66 nM, a koff of 0.000189 s⁻¹ and a kon of 71000 M⁻¹ s⁻¹. Also, in the assay with Human Serum Albumin [3], the dissociation constant (Kd) is 2.93 nM, the koff was 0.000163 s⁻¹ and the kon was 58400 M⁻¹ s⁻¹. In the assay with Mouse Serum albumin, this molecule showed a dissociation constant Kd of 4.16 nM, a koff of 0.000368 s⁻¹ and a kon of 88600 M⁻¹ s⁻¹.

Values taken from patent US20140302033A1 (UCB, published 2014).
